Data published in the supplement of paper PMC10065799, “High-throughput profiling of sequence recognition by tyrosine kinases and SH2 domains using bacterial peptide display” (eLife, 2023).

Experiments:
AncSZ = test: phosphorylation enrichment, bacterial display (enrichment ratio); higher = better substrate or ligand; peptides without Tyr show the background
EPHB1 = EPHB1 (UniProt P54762); test: as above
EPHB2 = EPHB2 (UniProt P29323); test: as above
FGFR1 = FGFR1 (UniProt P11362); test: as above
FGFR3 = FGFR3 (UniProt P22607); test: as above
Fer (mouse) = test: as above
Fes = Fes (UniProt P07332); test: as above
Fyn = Fyn (UniProt P06241); test: as above
Hck = Hck (UniProt P08631); test: as above
Jak2 = Jak2 (UniProt O60674); test: as above
MERTK = MERTK (UniProt Q12866); test: as above
c-Abl (mouse) = test: as above
c-Src = test: as above
Grb2 SH2 = Grb2 SH2 (UniProt P62993); test: SH2 binding enrichment of the phosphorylated peptide, bacterial display (enrichment ratio); higher = better substrate or ligand; peptides without Tyr show the background
SHP2-C SH2 = test: as above
c-Src SH2 = test: as above
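For SH2 binding enrichment of the phosphorylated peptide, bacterial display in this document: peptide library displayed on the E. coli surface as eCPX fusions, selected cells deep-sequenced, score is each peptide's frequency after selection divided by its frequency in the input.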
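For phosphorylation enrichment, bacterial display in this document: 11-residue human phosphosite peptides and single-mutation variants displayed on the E. coli surface, counted by deep sequencing, each peptide's frequency after selection divided by its frequency in the unselected input library; frequency after pTyr selection over input frequency; kinase dosed for 20-30% of maximal phosphorylation in three min.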

Sequence of Hck (P08631 whole entry, looked up): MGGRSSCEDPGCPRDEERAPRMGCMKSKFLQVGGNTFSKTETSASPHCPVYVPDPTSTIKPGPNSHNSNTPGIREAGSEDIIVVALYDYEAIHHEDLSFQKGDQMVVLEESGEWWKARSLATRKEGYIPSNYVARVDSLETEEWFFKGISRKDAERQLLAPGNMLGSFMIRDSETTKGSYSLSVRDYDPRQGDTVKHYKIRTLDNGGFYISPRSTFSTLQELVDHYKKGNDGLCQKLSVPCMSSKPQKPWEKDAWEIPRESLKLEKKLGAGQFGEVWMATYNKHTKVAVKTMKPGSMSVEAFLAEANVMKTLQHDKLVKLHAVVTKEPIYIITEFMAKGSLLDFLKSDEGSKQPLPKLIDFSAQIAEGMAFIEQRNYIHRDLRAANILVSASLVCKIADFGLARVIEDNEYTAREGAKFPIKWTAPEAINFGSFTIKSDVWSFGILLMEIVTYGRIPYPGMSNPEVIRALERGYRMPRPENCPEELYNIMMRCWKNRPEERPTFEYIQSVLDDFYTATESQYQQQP
Sequence of Jak2 (O60674 whole entry, looked up): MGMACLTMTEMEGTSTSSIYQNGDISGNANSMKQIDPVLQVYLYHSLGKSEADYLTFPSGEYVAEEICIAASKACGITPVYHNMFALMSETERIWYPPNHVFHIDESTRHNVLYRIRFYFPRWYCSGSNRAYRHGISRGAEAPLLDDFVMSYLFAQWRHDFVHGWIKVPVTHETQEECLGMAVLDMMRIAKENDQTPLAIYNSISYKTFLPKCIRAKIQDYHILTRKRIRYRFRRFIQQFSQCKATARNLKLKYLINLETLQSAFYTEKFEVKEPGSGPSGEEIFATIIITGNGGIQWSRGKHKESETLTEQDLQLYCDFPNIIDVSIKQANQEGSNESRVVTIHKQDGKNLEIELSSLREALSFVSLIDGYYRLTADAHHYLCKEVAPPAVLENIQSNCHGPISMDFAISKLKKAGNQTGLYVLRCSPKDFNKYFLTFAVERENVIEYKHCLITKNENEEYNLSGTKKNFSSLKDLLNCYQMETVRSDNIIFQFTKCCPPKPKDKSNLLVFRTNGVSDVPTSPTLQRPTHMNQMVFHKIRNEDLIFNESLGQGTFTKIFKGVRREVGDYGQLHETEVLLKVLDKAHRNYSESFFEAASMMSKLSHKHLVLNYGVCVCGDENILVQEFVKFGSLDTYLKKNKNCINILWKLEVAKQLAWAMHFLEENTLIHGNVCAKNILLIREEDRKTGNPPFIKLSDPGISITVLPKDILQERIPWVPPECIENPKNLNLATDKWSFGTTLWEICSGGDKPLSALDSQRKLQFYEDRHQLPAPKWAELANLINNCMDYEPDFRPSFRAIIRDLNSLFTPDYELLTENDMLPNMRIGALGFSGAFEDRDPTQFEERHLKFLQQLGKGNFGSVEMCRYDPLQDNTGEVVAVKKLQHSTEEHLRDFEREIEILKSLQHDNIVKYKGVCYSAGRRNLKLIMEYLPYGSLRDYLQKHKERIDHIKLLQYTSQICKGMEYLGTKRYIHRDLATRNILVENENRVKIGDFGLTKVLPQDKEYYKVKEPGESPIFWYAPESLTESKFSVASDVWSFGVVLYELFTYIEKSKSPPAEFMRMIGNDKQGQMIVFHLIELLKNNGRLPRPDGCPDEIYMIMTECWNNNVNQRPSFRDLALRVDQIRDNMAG
Sequence of MERTK (Q12866 whole entry, looked up): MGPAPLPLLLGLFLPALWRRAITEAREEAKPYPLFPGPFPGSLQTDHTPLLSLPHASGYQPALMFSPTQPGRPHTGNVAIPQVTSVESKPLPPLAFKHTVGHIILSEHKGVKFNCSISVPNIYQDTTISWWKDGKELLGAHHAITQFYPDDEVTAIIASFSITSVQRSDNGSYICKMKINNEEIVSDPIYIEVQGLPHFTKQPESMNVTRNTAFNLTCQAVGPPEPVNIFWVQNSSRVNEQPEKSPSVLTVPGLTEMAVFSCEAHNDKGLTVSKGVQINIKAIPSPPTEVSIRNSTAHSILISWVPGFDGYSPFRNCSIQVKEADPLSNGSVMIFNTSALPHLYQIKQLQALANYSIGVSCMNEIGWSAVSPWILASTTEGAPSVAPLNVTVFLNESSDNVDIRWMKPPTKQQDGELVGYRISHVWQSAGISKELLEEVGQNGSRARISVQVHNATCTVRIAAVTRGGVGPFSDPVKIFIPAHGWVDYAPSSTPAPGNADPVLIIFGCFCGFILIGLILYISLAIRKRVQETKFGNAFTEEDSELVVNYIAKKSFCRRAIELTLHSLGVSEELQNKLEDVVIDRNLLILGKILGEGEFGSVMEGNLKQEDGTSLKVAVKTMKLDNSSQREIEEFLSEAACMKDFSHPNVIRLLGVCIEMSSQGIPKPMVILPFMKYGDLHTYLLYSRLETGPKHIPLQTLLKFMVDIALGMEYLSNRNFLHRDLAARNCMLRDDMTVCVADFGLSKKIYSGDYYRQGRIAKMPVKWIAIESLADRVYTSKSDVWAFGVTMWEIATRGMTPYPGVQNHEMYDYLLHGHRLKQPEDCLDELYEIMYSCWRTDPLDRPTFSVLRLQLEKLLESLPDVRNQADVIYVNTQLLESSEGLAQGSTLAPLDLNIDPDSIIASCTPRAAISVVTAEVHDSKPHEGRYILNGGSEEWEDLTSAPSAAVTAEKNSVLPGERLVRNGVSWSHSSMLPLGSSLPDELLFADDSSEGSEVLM
Sequence of EPHB1 (P54762 whole entry, looked up): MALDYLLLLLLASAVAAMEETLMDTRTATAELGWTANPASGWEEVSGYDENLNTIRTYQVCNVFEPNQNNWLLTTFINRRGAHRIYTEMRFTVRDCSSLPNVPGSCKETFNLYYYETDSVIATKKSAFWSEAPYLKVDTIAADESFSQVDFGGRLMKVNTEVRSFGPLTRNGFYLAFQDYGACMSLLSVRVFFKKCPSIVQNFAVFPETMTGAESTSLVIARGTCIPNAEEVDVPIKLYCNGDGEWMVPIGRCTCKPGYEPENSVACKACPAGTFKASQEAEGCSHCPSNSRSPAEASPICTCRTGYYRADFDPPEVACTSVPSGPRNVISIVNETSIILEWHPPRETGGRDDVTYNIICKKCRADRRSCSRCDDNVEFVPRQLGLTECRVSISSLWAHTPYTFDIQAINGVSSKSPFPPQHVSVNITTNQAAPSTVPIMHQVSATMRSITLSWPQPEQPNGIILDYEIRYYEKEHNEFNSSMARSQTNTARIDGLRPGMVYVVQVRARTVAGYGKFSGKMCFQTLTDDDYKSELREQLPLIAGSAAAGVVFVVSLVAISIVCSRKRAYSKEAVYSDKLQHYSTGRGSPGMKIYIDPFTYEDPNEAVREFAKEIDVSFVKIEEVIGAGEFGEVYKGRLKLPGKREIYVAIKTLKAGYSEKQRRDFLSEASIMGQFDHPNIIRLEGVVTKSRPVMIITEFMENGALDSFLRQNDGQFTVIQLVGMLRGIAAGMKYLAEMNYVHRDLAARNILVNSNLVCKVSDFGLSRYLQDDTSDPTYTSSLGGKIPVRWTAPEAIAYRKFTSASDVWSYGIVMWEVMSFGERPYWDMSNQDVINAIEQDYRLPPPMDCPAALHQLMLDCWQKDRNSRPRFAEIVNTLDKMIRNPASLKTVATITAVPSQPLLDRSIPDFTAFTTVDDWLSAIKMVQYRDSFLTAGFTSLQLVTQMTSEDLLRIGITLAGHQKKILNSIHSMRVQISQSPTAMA
Sequence of EPHB2 (P29323 whole entry, looked up): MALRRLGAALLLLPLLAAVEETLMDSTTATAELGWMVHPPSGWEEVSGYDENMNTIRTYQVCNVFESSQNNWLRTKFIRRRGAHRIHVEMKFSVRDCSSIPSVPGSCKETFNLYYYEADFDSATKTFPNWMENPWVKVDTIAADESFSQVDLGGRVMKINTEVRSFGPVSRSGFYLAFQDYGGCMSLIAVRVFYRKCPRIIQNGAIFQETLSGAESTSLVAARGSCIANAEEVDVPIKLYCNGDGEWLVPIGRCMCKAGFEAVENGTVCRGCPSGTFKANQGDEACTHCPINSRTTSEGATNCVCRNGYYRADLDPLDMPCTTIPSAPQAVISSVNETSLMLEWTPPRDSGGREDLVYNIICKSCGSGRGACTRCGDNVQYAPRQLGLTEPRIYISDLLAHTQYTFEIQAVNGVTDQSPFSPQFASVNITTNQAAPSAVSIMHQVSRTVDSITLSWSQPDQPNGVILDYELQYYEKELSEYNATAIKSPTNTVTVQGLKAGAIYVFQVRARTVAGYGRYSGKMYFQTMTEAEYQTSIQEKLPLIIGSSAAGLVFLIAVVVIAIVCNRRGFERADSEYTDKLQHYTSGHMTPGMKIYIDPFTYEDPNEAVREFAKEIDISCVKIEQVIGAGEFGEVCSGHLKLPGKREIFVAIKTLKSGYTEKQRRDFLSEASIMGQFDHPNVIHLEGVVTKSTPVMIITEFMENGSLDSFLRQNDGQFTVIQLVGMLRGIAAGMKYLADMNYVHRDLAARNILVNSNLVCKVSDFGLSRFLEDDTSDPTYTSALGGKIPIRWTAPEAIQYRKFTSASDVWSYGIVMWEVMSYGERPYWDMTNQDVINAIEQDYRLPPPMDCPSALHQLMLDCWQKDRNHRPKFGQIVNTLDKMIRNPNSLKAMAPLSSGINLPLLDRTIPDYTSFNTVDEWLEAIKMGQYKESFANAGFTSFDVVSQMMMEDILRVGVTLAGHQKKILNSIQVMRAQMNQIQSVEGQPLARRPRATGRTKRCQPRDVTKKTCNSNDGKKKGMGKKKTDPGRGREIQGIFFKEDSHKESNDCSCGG
Sequence of Grb2 SH2 (P62993 whole entry, looked up): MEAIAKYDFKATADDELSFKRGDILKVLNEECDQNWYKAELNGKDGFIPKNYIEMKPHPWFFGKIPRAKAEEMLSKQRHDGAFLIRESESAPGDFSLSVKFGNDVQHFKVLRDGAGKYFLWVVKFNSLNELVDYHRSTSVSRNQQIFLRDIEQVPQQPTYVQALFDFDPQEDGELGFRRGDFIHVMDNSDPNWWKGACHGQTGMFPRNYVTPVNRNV

Sequence	phosphorylation enrichment (AncSZ)	phosphorylation enrichment (EPHB1)	phosphorylation enrichment (EPHB2)	phosphorylation enrichment (FGFR1)	phosphorylation enrichment (FGFR3)	phosphorylation enrichment (Fer (mouse))	phosphorylation enrichment (Fes)	phosphorylation enrichment (Fyn)	phosphorylation enrichment (Hck)	phosphorylation enrichment (Jak2)	phosphorylation enrichment (MERTK)	phosphorylation enrichment (c-Abl (mouse))	phosphorylation enrichment (c-Src)	SH2 binding enrichment (Grb2 SH2)	SH2 binding enrichment (SHP2-C SH2)	SH2 binding enrichment (c-Src SH2)
PFQGAYLKINK [MYO1B_Y967_E969K]	1.1	0.539	0.571	0.417	0.909	0.853	1.52	0.582	0.643	1.18	0.461	0.88	0.319	1.11	0.908	1.61
KDQPDYKFQPR [SOX9_Y172_H169Q_YF]	0.666	0.348	0.402	0.422	0.529	0.381	0.678	0.382	0.386	0.491	0.46	0.457	0.434	1.2	0.829	0.675
CFVFFYSFLLK [PTEN_Y178_R173C_YF]	0.997	0.473	0.72	0.423	0.865	0.487	1.03	0.459	0.578	0.987	0.557	0.86	0.519	1.78	1.8	0.789
ADEEFYEIIAA [FEStide_F_2014]	2.54	0.886	0.77	1.5	1.4	7.22	1.57	2.42	3.26	1.09	2.19	0.853	3.36	0.917	0.605	0.729
QLQTNYPSSDN [MAX_Y115]	0.951	0.583	0.766	0.642	0.725	0.551	1.14	0.476	0.527	0.773	0.657	1.02	0.628	0.752	0.513	0.546
VVEDGYEFFAK [PPP1CB_Y254]	1.41	0.473	0.792	0.518	0.615	0.42	0.988	0.571	0.491	1.01	0.392	0.574	0.504	0.984	0.856	1.08
SREDIYKRNTE [PDE4DIP_Y45_I49T]	0.8	0.62	0.416	0.411	0.696	0.463	1.05	0.409	0.429	0.81	0.374	0.898	0.451	0.685	0.691	0.344
AEQEEYSAMRD [NRAS_Y64_G60E]	1.4	0.541	0.566	0.525	0.737	0.469	1.26	0.458	0.571	1.14	0.478	0.802	0.536	1.01	0.785	0.456
RKETFYILSCR [GUCY2C_Y681_T682I]	1.44	0.546	0.474	0.553	0.917	0.665	1.59	0.373	0.355	0.953	0.525	1.1	0.448	1.15	0.663	0.519
RRVLVYGDRGA [QDPR_Y16_G18D]	0.585	0.34	0.322	0.413	0.549	0.424	0.539	0.542	0.525	0.485	0.48	0.445	0.573	0.838	0.529	0.442
TGVRDYIHVVD [GALE_Y241]	0.846	0.499	0.531	0.587	0.593	0.413	1.01	0.426	0.493	0.71	0.331	0.586	0.381	0.81	0.658	0.549
KLMTEYKKRKQ [ARFGEF3_Y2029]	0.478	0.336	0.34	0.331	0.543	0.411	0.69	0.418	0.459	0.653	0.52	0.629	0.442	1.27	0.878	1.08
FQHLRYIKQLG [SAMHD1_Y146_R143H]	0.685	0.374	0.371	0.393	0.611	0.436	0.775	0.393	0.395	0.706	0.363	0.502	0.331	0.722	0.746	0.496
ICGVSYDEYRY [CFTR_Y512_F508C]	1.46	0.733	0.704	0.478	1.01	0.599	1.58	0.637	0.633	1.26	0.463	0.943	1.11	0.751	0.681	1.77
RDMNACIRPSP [MMAA_Y207_Y207C]	1.12	1.06	1.07	0.934	1.03	0.571	1.29	0.773	0.798	0.581	0.62	0.565	0.375	0.969	0.444	0.58
SSSGAYGGGFG [KRT19_Y61_YF]	0.553	0.383	0.378	0.412	0.464	0.396	0.689	0.434	0.415	0.595	0.396	0.539	0.452	0.724	0.517	0.427
GLDGSYLPRDS [SH2D1A_Y29_L31P]	0.663	0.44	0.4	0.418	0.446	0.419	0.624	0.356	0.55	0.534	0.416	0.513	0.418	0.879	0.483	0.557

Sequence	phosphorylation enrichment (AncSZ)	phosphorylation enrichment (EPHB1)	phosphorylation enrichment (EPHB2)	phosphorylation enrichment (FGFR1)	phosphorylation enrichment (FGFR3)	phosphorylation enrichment (Fer (mouse))	phosphorylation enrichment (Fes)	phosphorylation enrichment (Fyn)	phosphorylation enrichment (Hck)	phosphorylation enrichment (Jak2)	phosphorylation enrichment (MERTK)	phosphorylation enrichment (c-Abl (mouse))	phosphorylation enrichment (c-Src)	SH2 binding enrichment (Grb2 SH2)	SH2 binding enrichment (SHP2-C SH2)	SH2 binding enrichment (c-Src SH2)
ENKGVYVPMSG [IVD_Y277_L279P]	0.599	0.411	0.383	0.48	0.531	0.405	0.559	0.367	0.519	0.517	0.451	0.503	0.449	0.734	0.445	3.41
SKKVRYVVSKA [BARD1_Y156]	0.474	0.309	0.334	0.292	0.402	0.36	0.569	0.366	0.372	0.482	0.312	0.538	0.341	1.38	1.17	1.32
ADARMYGVLPR [PLP1_Y207_W212R]	0.598	0.378	0.477	0.467	0.44	0.385	0.467	0.536	3.23	0.398	0.405	0.481	0.727	0.661	0.629	0.557
LKGQVDILGRE [ASS1_Y359_Y359D]	0.803	0.539	0.696	0.578	0.638	0.598	1.07	0.559	0.575	1.26	0.663	0.658	0.764	1.01	0.582	0.595
QKMADYSNKLH [PDPR_Y104_Y109H]	0.843	0.569	0.864	0.527	0.708	0.571	0.835	0.382	0.586	0.974	0.429	0.714	0.706	0.766	1.13	0.466
KFVVVYFREID [IL17RB_Y447_YF]	1.2	0.508	0.523	0.49	0.691	0.446	1.27	0.436	0.538	1.17	0.362	0.724	0.408	1.96	2.08	1.43
DDHFTYSRYPW [LY75_Y888]	1.49	4.66	7.92	0.576	0.969	0.642	1.13	4.82	6.62	1.13	1.23	1.86	5.2	0.531	0.942	0.432
TGDFGYRAPGF [TNS2_Y668_YF]	0.724	0.501	0.414	0.542	0.601	0.44	0.784	0.6	0.409	0.724	0.542	1.02	0.593	0.965	0.726	0.463
SVTCTYSPAVN [TP53_Y126_L130V]	1.58	0.77	0.746	0.697	0.945	0.646	1.71	0.58	0.654	1.49	0.508	1.18	0.662	0.588	0.661	0.369
GITVTYTIPKK [UBA5_Y372_A371T]	0.933	0.537	0.557	0.522	0.563	0.497	0.96	0.413	0.54	0.994	1.49	2.12	0.4	0.862	3.64	1.26
PGGNIYISPLK [RB1_Y805]	0.902	0.4	0.571	0.545	0.526	0.804	0.58	0.804	2.65	0.529	0.685	1.75	0.757	1.39	1.72	1.04
LWKWRYEELKE [CCDC102B_Y299_K298R]	1.34	1.28	1.09	0.503	1.02	0.771	2.5	0.629	0.561	2.73	0.909	1.7	0.715	1.29	1.36	2.08
GSERRYTREGG [PTPRN2_Y139_S140T]	0.448	0.345	0.347	0.458	0.407	0.351	0.583	0.319	0.415	0.463	0.382	0.489	0.482	0.777	0.563	0.485
HFVDEYDQTIE [KRAS_Y32_P34Q]	2.79	1.1	1.07	0.93	0.852	0.667	2.04	0.897	0.835	2.14	0.804	1.01	0.935	0.973	0.62	0.592
DPHECYAKVFN [ALB_Y394_D399N]	0.844	0.549	0.586	0.589	0.643	0.529	0.952	0.552	0.81	0.847	0.504	0.91	0.624	1.11	1.81	1.4
EVVGRYSVHFA [MLH1_Y183_N187Y_YF]	0.92	0.612	0.49	0.529	0.676	0.424	0.978	0.579	0.504	0.692	0.448	0.531	0.436	0.909	0.798	0.532
